The target in assay [1] is T1, human ST2L, full length, on cells (human, UniProt Q01638 19-556).
T1 sequence: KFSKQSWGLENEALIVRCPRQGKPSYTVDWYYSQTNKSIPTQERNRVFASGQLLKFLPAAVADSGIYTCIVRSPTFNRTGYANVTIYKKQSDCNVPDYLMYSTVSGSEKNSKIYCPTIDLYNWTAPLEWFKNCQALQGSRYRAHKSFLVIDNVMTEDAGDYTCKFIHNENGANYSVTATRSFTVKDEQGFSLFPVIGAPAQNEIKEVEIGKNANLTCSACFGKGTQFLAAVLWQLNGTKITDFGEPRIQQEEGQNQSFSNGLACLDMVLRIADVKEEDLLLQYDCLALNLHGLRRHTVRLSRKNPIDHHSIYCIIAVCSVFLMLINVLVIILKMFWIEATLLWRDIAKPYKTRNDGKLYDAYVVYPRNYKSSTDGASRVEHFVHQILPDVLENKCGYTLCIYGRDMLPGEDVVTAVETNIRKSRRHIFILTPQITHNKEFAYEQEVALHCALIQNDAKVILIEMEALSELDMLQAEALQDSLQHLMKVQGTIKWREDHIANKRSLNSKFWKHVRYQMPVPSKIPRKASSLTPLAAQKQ
The assay is described as follows: cell-based or functional assay.

Assay [2] deals with T2, human ST2L extracellular domain with C-terminal His6 tag (human, UniProt Q01638 19-328).
T2 construct: also called huST2L-ECD; ST2L-ECD
T2 sequence: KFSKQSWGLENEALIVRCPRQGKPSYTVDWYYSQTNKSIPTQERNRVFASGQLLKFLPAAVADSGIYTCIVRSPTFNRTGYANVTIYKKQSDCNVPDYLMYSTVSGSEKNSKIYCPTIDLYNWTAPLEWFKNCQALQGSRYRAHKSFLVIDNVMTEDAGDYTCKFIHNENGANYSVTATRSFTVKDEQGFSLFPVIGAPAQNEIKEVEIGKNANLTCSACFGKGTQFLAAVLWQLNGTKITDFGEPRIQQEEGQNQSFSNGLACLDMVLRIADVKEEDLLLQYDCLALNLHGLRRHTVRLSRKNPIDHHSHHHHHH
The assay is described as follows: SPR, mAb captured, ST2L-ECD in solution. A general note: SPR reads the build-up and loss of mass on a sensor chip optically.

Assay [3] concerns the target T3, cynomolgus (Macaca fascicularis) ST2L extracellular domain with C-terminal His6 tag (Macaca fascicularis (cynomolgus), UniProt Q01638 19-321 (human entry)).
T3 construct: also called cyno ST2L-ECD; cynoST2L-ECD
T3 chain: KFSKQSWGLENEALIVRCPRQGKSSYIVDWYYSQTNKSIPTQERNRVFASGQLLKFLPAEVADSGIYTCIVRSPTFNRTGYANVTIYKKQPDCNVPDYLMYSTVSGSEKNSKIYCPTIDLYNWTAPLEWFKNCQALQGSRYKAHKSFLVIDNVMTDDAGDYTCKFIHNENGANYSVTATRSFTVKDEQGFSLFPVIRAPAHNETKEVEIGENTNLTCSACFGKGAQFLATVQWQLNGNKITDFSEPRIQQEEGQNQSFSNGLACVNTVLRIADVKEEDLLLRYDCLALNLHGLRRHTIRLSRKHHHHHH
The assay is described as follows: SPR, mAb captured, ST2L-ECD in solution.

In assay [4] the target is T2, human ST2L extracellular domain with …. Briefly: RLB ELISA: biotinylated IL-33 on coated huST2L-ECD, antibody titrated. The method, then: 96-well plate was coated with 50 μl of 4 μg/ml human ST2L-ECD (amino acids 19-328 of SEQ ID NO: 1) or 2 μg/ml cyno ST2L-ECD (amino acids 19-321 of SEQ ID NO: 2) having C-terminal His₆ tag in bicarbonate buffer at 4° C. for 16 hrs. All subsequent steps were performed at room temperature. Plate was blocked with 200 μl blocking buffer, and was washed 3 times with 300 μl of wash buffer containing PBS+0.05% Tween. 30 μl of various dilutions of anti-ST2L mAbs were added to the wells and incubated for 1 hour. For human receptor-ligand binding assay 20 μl of biotinylated human IL-33 (residues 112-270 of SEQ ID NO: 3) was added at 100 ng/ml final concentration and incubated for 30 minutes. For cyno receptor-ligand binding assay 20 μl of biotinylated cyno IL-33 (residues 112-269 of SEQ ID NO: 4) was added at 200 ng/ml final concentration and incubated for 30 minutes. The plate was washed 3 times with 300 μl of wash buffer. 50 μl of 0.2 μg/ml Streptavidin-HRP (Jackson Immunoresearch) was added and incubated for 30 min. The plate was washed 3 times with 300 μl of wash buffer containing PBS+0.05% Tween. 50 μl of TMB substrate (EMD Biosciences) was added to each well. Reaction was stopped by the addition of 100 μl of 0.2N Sulfuric Acid. OD450 were measured using Envision plate reader (Perkin Elmer).

B1: STLM220 (antibody, V domains shown)
VH: EVQLLESGGGLVQPGGSLRLSCAASGFTFSFYDMFWVRQAPGKGLEWVSDIRGEGGGTAYADSVKGRFTISRDNSKNTLYLQMNSLRAEDTAVYYCARDPWSTEGSFFVLDYWGQGTLVTVSS
VL: EIVLTQSPATLSLSPGERATLSCRASQSVDDDLAWYQQKPGQAPRLLIYDASNRATGIPARFSGSGSGTDFTLTISSLEPEDFAVYYCQQYIGAPITFGQGTKVEIK
notes: frameworks VH3-23 / Vk-L6
In general, Kd refers to the equilibrium constant for the complex coming apart. A lower Kd goes with a tighter complex. Usually koff stands for the rate constant with which the complex falls apart. In general, kon refers to the rate constant with which the complex forms. Lower therefore signals slower complex formation. What is called IC50 is the concentration that gives 50% inhibition. A lower IC50 goes with greater potency in that assay. Consider B1, for which the “RGA IC50” value in assay [1] came to 0.6 µg/mL. In assay [2], this molecule showed a Kd of 0.016 nM, a koff of 9.53e-05 s⁻¹ and a kon of 5.8e+06 M⁻¹ s⁻¹. For the same molecule, in assay [3], binding was characterised by a dissociation constant (Kd) of 0.009 nM, the koff was found to be 0.00014 s⁻¹ and the on-rate constant (kon) was determined as 1.6e+07 M⁻¹ s⁻¹. Besides, in assay [4], the IC50 was 0.39 µg/mL.

B2: STLM108 (antibody, V domains shown)
VH: EVQLLESGGGLVQPGGSLRLSCAASGFTFSIYDMIWVRQAPGKGLEWVSTIKGEGGGTYYADSVKGRFTISRDNSKNTLYLQMNSLRAEDTAVYYCARDPWSTEGSFFVLDYWGQGTLVTVSS
VL: EIVLTQSPATLSLSPGERATLSCRASQSVDDDLAWYQQKPGQAPRLLIYDASNRATGIPARFSGSGSGTDFTLTISSLEPEDFAVYYCQQYIGAPITFGQGTKVEIK
notes: frameworks VH3-23 / Vk-L6
As to B2, the “RGA IC50” value in assay [1] is 2.34 µg/mL. For the same molecule, in assay [2], the Kd worked out at 0.097 nM, the koff is 0.000222 s⁻¹ and the kon was determined as 2.29e+06 M⁻¹ s⁻¹. In assay [3], the Kd is 0.029 nM, the koff is 0.000598 s⁻¹ and the kon was 2.05e+07 M⁻¹ s⁻¹. Besides, the IC50 in assay [4] stood at 0.23 µg/mL.

B3: STLM103 (antibody, V domains shown)
VH: EVQLLESGGGLVQPGGSLRLSCAASGFTFSFYDMFWVRQAPGKGLEWVSSIRGEGGRTDYADSVKGRFTISRDNSKNTLYLQMNSLRAEDTAVYYCARDPWSTEGSFFVLDYWGQGTLVTVSS
VL: EIVLTQSPATLSLSPGERATLSCRASQSVDDDLAWYQQKPGQAPRLLIYDASNRATGIPARFSGSGSGTDFTLTISSLEPEDFAVYYCQQYIGAPITFGQGTKVEIK
notes: frameworks VH3-23 / Vk-L6
Take B3: in assay [1], the “RGA IC50” value was found to be 1.92 µg/mL. In assay [2], this molecule had a Kd of 0.041 nM, a koff of 0.000163 s⁻¹ and a kon of 3.97e+06 M⁻¹ s⁻¹. In assay [3], this molecule registered a dissociation constant Kd of 0.031 nM, a koff of 0.000202 s⁻¹ and a kon of 6.42e+06 M⁻¹ s⁻¹. This molecule also came in with an IC50 in assay [4] of 0.47 µg/mL.

B4: STLM123 (antibody, V domains shown)
VH: EVQLLESGGGLVQPGGSLRLSCAASGFTFSDYAMFWVRQAPGKGLEWVSAIEGEGGETNYADSVKGRFTISRDNSKNTLYLQMNSLRAEDTAVYYCARDPWSTEGSFFVLDYWGQGTLVTVSS
VL: EIVLTQSPATLSLSPGERATLSCRASQSVDDDLAWYQQKPGQAPRLLIYDASNRATGIPARFSGSGSGTDFTLTISSLEPEDFAVYYCQQYITAPLTFGQGTKVEIK
notes: frameworks VH3-23 / Vk-L6
As for B4, in assay [1], the “RGA IC50” value worked out at 1.25 µg/mL. In assay [2], this molecule came in with a Kd of 0.015 nM, a koff of 0.000208 s⁻¹ and a kon of 1.37e+07 M⁻¹ s⁻¹. Besides, in assay [3], binding was characterised by a dissociation constant (Kd) of 0.005 nM, the dissociation rate constant (koff) worked out at 0.000519 s⁻¹ and the kon turned out to be 1e+08 M⁻¹ s⁻¹. The same molecule displayed a concentration for half-maximal inhibition (IC50) in assay [4] of 0.28 µg/mL.

B5: STLM107 (antibody, V domains shown)
VH: EVQLLESGGGLVQPGGSLRLSCAASGFTFSDYAMFWVRQAPGKGLEWVSAIEGEGGETNYADSVKGRFTISRDNSKNTLYLQMNSLRAEDTAVYYCARDPWSTEGSFFVLDYWGQGTLVTVSS
VL: EIVLTQSPATLSLSPGERATLSCRASQSVDDDLAWYQQKPGQAPRLLIYDASNRATGIPARFSGSGSGTDFTLTISSLEPEDFAVYYCQQYIGAPITFGQGTKVEIK
notes: frameworks VH3-23 / Vk-L6
Turning to B5, the “RGA IC50” value in assay [1] turned out to be 1.1 µg/mL. In assay [2], the Kd amounted to 0.012 nM, the koff stood at 0.000341 s⁻¹ and the kon amounted to 2.9e+07 M⁻¹ s⁻¹. Moreover, in assay [3], binding was characterised by a dissociation constant (Kd) of 0.007 nM, the koff was found to be 0.00065 s⁻¹ and the kon was 1e+08 M⁻¹ s⁻¹. This molecule also returned an IC50 in assay [4] of 0.44 µg/mL.

The record behind these values is US20170066831A1 (Janssen / Centocor, published 2017).
